Measurements as given in the supplement of paper PMC10724198.
± gives the standard deviation of the averaged measurements.

Test system: Saccharomyces cerevisiae
Test: protein stability index of tFT-peptide fusion (C-terminal peptide) (PSI (0-1 scale)); higher = more stable (slower turnover)
Settings: genetic background: wild type; temperature: 30 C
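Further: PSI is a weighted mean of sequencing reads over stability bins, variants kept only with over 10 reads, mCherry proximal and sfGFP distal, peptide attached via GGGS linker.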

Sequence	protein stability index
WGGGLGTAVVGV	0.643 ± 0.021
WGGQRGWVEVWR	0.683 ± 0.04
WGKGGWHRRWGC	0.673 ± 0.0098
WGRRGSRGSWGA	0.733 ± 0.028
WGVVGEWAGVGR	0.747 ± 0.052
WGWGGHGIVRRE	0.812 ± 0.14
WGYAFVGVVRGA	0.661 ± 0.046
WGYEGGWGGHGT	0.659 ± 0.025
WHRAGRSRMSWS	0.777 ± 0.1
WIFRDHVLRRFP	0.661 ± 0.024
WIISERDRTEQT	0.733 ± 0.06
WIRTCMLIQGQT	0.736 ± 0.021
WIRVYPDSSSPL	0.8557 ± 0.002
WKEMRKKVGRGK	0.696 ± 0.056
WKNTNSLRAPAL	0.675 ± 0.016
WLAGKAGASHRG	0.656 ± 0.0079
WLAIFFFSLSPF	0.525 ± 0.055
WLFAFLCSCFCV	0.71 ± 0.093
WLGFHFLFLWKC	0.587 ± 0.1
WLIKKIKTKQTR	0.758 ± 0.074
WLLGLRPTVSKE	0.756 ± 0.068
WLRRFIFGSVVN	0.657 ± 0.015
WPPRPPRPSSTL	0.724 ± 0.011
WPSCKVHSPSPS	0.675 ± 0.016
WPWLHSVACLYS	0.626 ± 0.09
WRAVVVSGTVAY	0.578 ± 0.025

Sequence	protein stability index
WRGGAWVRGCVL	0.74 ± 0.04
WRGGWAETGGRE	0.705 ± 0.013
WRRCSGVGVGSP	0.663 ± 0.072
WRWCGLWDTRTY	0.819 ± 0.0085
WSFMYLYFFDSW	0.685 ± 0.086
WSGREGRGEWGW	0.791 ± 0.024
WSIVVDDISWSV	0.698 ± 0.013
WSLGPDVCGGVV	0.708 ± 0.027
WSPGGGPLGLYE	0.743 ± 0.018
WSRRGQRGKAWR	0.733 ± 0.12
WSRSGGWEKYGV	0.681 ± 0.024
WSRVQFFYFCWI	0.547 ± 0.051
WSSTLFFFVGFS	0.673 ± 0.056
WSSTPSCVPDLP	0.721 ± 0.054
WSVVGVGGCGAR	0.712 ± 0.041
WSVVRGGGCGAR	0.697 ± 0.028
WTLELSGWLRSE	0.77 ± 0.079
WVCRVWGGWLRG	0.686 ± 0.044
WVGGGRAKAKRE	0.696 ± 0.054
WVGRIRGMEGWM	0.696 ± 0.037
WVGSWYVATGEA	0.754 ± 0.063
WVGYAWDGKFDL	0.736 ± 0.11
WVREFSHKHVMS	0.718 ± 0.01
WVRVSVPAVGRI	0.7035 ± 0.0067
WVSDTNNTSRRK	0.752 ± 0.051
WVSFVFCSLLGG	0.588 ± 0.018

Sequence	protein stability index
WVSHMHLGSFVH	0.701 ± 0.09
WVSPALEALYRK	0.764 ± 0.07
WWFGGETGVGGR	0.712 ± 0.039
WWPDILWLNTGW	0.701 ± 0.035
WYIEYLNYTTEQ	0.697 ± 0.0089
WYKIQILDPNVG	0.749 ± 0.011
WYLRSFVVSTLQ	0.533 ± 0.065
YARVIFGGNWFS	0.552 ± 0.02
YASRVLCVGLVL	0.636 ± 0.094
YCGCSLSEMSWV	0.741 ± 0.037
YCGPSAGREGGG	0.771 ± 0.081
YCGSVCRPYSYL	0.695 ± 0.057
YCLLCSFVGPPA	0.731 ± 0.19
YCPPHRCEAECI	0.657 ± 0.06
YCRGGGRAKREV	0.693 ± 0.014
YDDSSLLFSNNL	0.702 ± 0.0078
YDLGHYFSIPRL	0.747 ± 0.011
YDTGSRASWIAF	0.714 ± 0.067
YDVGSKAVLTLE	0.566 ± 0.0074
YEGVNLSWYRIR	0.676 ± 0.045
YENFHTRFAVGV	0.504 ± 0.037
YEPNYKEKKTQY	0.69 ± 0.017
YFAQCLDFFSLV	0.663 ± 0.019
YFCGRGSVLLVT	0.56 ± 0.014
YFGPSPTRPPVP	0.7225 ± 0.0015
YFLPESKIGRSG	0.705 ± 0.023

Sequence	protein stability index
YFPFPPPLLSPP	0.766 ± 0.02
YGCVSPVAGFAN	0.7254 ± 0.0069
YGGGGWRGVALG	0.65 ± 0.043
YGVFALFLSSLS	0.576 ± 0.056
YHDVRSLGPSRT	0.666 ± 0.04
YIKAPCMRQSGG	0.704 ± 0.019
YILPTPKAFRSF	0.738 ± 0.17
YKNRKYNGKIRI	0.585 ± 0.18
YLCLPPALISRI	0.656 ± 0.029
YLDTVALLSRVL	0.569 ± 0.027
YLFPFLCFSPPP	0.702 ± 0.072
YLGTETSLTSLK	0.786 ± 0.088
YLLKRSQSLLII	0.5 ± 0.014
YLPYRTCSWKYE	0.56 ± 0.022
YLYSCVCGVLSN	0.5472 ± 0.0049
YNINIKKENITE	0.68 ± 0.025
YNSTVVKKGRCP	0.7024 ± 0.0028
YPPLPVRPLVLL	0.515 ± 0.0056
YPPPPPPPPPRF	0.7367 ± 0.0056
YPPRLPSILPFP	0.696 ± 0.046
YPSLPQIVLATV	0.5033 ± 0.004
YQCPASSPVLSA	0.7191 ± 0.005
YQEIIKRQTGNK	0.745 ± 0.012
YQFAALRFTFPL	0.647 ± 0.044
YRDQAGTGSWRM	0.692 ± 0.023
YRGRGSDQYAGT	0.624 ± 0.058

Sequence	protein stability index
YRHYVKLGPKPF	0.668 ± 0.024
YRKGWRREVGGG	0.699 ± 0.011
YRLAPVSLTMSS	0.706 ± 0.045
YRLDTFCPHFSN	0.752 ± 0.13
YRLRAFLSMTQQ	0.616 ± 0.01
YRRDVGAARVLP	0.67 ± 0.021
YRTSLSMANHLL	0.611 ± 0.069
YSAPFRIPLSLR	0.631 ± 0.034
YSCDEDPVTVRG	0.699 ± 0.036
YTPSGHKRRMYV	0.642 ± 0.064
YTPSPHVRAPRH	0.737 ± 0.025
YTPVKDNDVKVY	0.722 ± 0.077
YTRAGNDKIFWE	0.809 ± 0.0096
YTRGVENTDMAP	0.768 ± 0.022
YTYPINPLDQTR	0.7196 ± 0.0027
YVCLATLSSFSF	0.644 ± 0.048
YVCRCGCLVKSV	0.656 ± 0.043
YVEVLLFTSVGF	0.569 ± 0.07
YVIAMVYGAPWS	0.60667 ± 0.00018
YVKSIRRRDYIW	0.694 ± 0.0046
YWGGWWGGWEIG	0.689 ± 0.014
YYIITRWPNTTR	0.847 ± 0.2
YYLQPTCLCFWE	0.698 ± 0.0041
